According to patent publication US20260055172A1:

Biological target: human complement protein C1q (human) (UniProt P02745)
Test: ELISA, 10 µg/ml human C1q, detection with HRP-conjugated anti-C1q antibody, antibody concentration varied

human complement protein C1q (human), sequence (P02745 23-245 limits assumed, chain 1 of 3): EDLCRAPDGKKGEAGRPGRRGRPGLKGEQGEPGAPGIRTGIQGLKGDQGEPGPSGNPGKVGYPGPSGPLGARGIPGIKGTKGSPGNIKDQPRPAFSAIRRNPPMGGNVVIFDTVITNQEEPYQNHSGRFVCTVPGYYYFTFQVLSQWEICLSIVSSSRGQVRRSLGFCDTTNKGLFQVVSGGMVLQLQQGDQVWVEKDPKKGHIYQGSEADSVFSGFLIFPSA
human complement protein C1q (human), sequence (P02746 28-253 limits assumed, chain 2 of 3, further chain): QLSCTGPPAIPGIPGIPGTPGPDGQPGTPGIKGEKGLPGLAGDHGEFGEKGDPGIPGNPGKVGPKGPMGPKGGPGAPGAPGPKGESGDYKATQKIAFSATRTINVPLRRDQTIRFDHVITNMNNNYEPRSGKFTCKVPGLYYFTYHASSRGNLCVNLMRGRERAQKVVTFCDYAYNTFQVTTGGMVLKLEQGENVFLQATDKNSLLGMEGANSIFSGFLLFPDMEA
human complement protein C1q (human), sequence (P02747 29-245 limits assumed, chain 3 of 3, further chain): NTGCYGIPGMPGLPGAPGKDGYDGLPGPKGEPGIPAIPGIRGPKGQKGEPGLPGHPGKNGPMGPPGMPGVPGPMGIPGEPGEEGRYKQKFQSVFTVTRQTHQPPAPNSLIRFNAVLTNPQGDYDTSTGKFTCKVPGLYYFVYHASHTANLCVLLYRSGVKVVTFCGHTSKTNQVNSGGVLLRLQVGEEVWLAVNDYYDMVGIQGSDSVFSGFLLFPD

For Rituximab (antibody), the EC50 (read off the curve) was 2 µg/mL.
